Experimental findings from patent publication US11857697B2, “Compositions and methods for obtaining 3-dimensional lung-like epithelium and related uses thereof” (THE REGENTS OF THE UNIVERSITY OF MICHIGAN, priority 2017, dated 2024) are described below.

The test system of one experiment is human fetal lung buds. As to the kind of experiment: Marker expression (QRT-PCR, immunostaining) in cultured human fetal lung buds. Type of experiment: cell-based. On the procedure:
(§1) RNA was extracted using the MagMAX-96 Total RNA Isolation System (Life Technologies). RNA quality and concentration was determined on a Nanodrop 2000 spectrophotometer (Thermo Scientific). 100 ng of RNA was used to generate a cDNA library using the SuperScript VILO cDNA master mix kit (Invitrogen) according to manufacturer's instructions. qRT-PCR analysis was conducted using Quantitect SYBR Green Master Mix (Qiagen) on a Step One Plus Real-Time PCR system (Life Technologies). Expression was calculated as a change relative to GAPDH expression using arbitrary units, which were calculated by the following equation: [2^(GAPDH Ct−Gene Ct)]×10,000. A Ct value of 40 or greater was considered not detectable. A list of primer sequences used can be found in Table 1.
Mouse bud, human bud, and HLO tissue was fixed in 4% Paraformaldehyde (Sigma) for 2 hours and rinsed in PBS overnight. Tissue was dehydrated in an alcohol series, with 30 minutes each in 25%, 50%, 75% Methanol:PBS/0.05% Tween-20, followed by 100% Methanol, and then 100% Ethanol. Tissue was processed into paraffin using an automated tissue processor (Leica ASP300). Paraffin blocks were sectioned 5-7 uM thick, and immunohistochemical staining was performed as previously described (Spence et al., 2009). A list of antibodies, antibody information and concentrations used can be found in Table 2. […]

The test system of experiment [1] is hPSC-derived human lung organoids (HLOs). The experiment in a line: Marker expression (QRT-PCR, immunofluorescence) in HLOs. It is filed as cell-based. To be noted: 42 days 3F then 26 days FGF7 only. On the procedure:
Based on results in the mouse showing that FGF7 was permissive for differentiation (FIG. 1), experiments were conducted that hypothesized that removing CHIR-99021 and RA from HLOs grown in 3F media would reduce the number of progenitor cells and increase differentiation of mature cell types within HLO cultures. Foregut spheroids were collected and grown in 3F media for 42 days and were cultured for an additional 26 days in 3F media (control) or media containing FGF7 only (FIG. 10A). […] At the end of the experiment, cultures were collected and assessed for gene and protein expression.
as §1
Mouse bud, human bud, and HLO tissue was fixed in 4% Paraformaldehyde (Sigma) for 2 hours and rinsed in PBS overnight. Tissue was dehydrated in an alcohol series, with 30 minutes each in 25%, 50%, 75% Methanol:PBS/0.05% Tween-20, followed by 100% Methanol, and then 100% Ethanol. Tissue was processed into paraffin using an automated tissue processor (Leica ASP300). Paraffin blocks were sectioned 5-7 uM thick, and immunohistochemical staining was performed as previously described (Spence et al., 2009). A list of antibodies, antibody information and concentrations used can be found in Table 2. PAS Alcian blue staining was performed using the Newcomer supply Alcian Blue/PAS Stain kit (Newcomer Supply, Inc.) according to manufacturer's instructions.

B1: Recombinant Human Fibroblast Growth Factor 7 (protein, UniProt P21781 32-194, looked up)
Fibroblast growth factor 7: CNDMTPEQMATNVNCSSPERHTRSYDYMEGGDIRVRRLFCRTQWYLRIDKRGKVKGTQEMKNNYNIMEIRTVAVGIVAIKGVESEFYLAMNKEGKLYAKKECNEDCNFKELILENHYNTYASAKWTHNGGEMFVALNQKGIPVRGKKTKKEQKTAHFLPMAIT
notes: Recombinant human growth factor from R&D systems, used at 10 ng/mL unless otherwise noted
With B1, the “Expression of proximal airway markers P63 and SCGB1A1 (QRT-PCR)” value in the experiment with human fetal lung buds (4 weeks in culture, compared to 14 week old human fetal lung) is on record as “significantly increased expression”. Also, the “SOX9 and SOX2 immunostaining” value with human fetal lung buds (sections and wholemount, 4 weeks in vitro) is “expressed both markers, but strong cytoplasmic SOX9 localization was observed”. In experiment [1] (versus 3F), the “AECI marker HOPX gene expression” value is recorded as “increased gene expression”; the “AECII marker SFTPC protein and mRNA expression” value was “increase in both protein and mRNA expression”; the “FOXJ1 mRNA expression (QRT-PCR)” value is recorded as “increased significantly”; the “MUC5AC gene expression (QRT-PCR)” value is given as “significant increase”. Further, in experiment [1] (versus 3F), the “P63 mRNA expression (QRT-PCR)” value was “significant increase in mRNA expression”, the “SOX2 transcript (QRT-PCR)” value is “significant increase” and the “SOX9 transcript (QRT-PCR)” value was “no change”. The “Increase of SCGB1A1 mRNA level over 3F controls” value in experiment [1] (not statistically significant) was about 100 fold.
